The subject of data set [1] is Saccharomyces cerevisiae. Kind of data set: protein stability index of tFT-peptide fusion in wild type (PSI (0-1 scale)); higher = more stable (slower turnover). Conditions: genetic background: wild type.
Data set [2] concerns Saccharomyces cerevisiae. Kind of data set: protein stability index of tFT-peptide fusion in deletion strain of DOA10 (PSI (0-1 scale)); higher = more stable (slower turnover). The protocol: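 MPS profiling in S. cerevisiae of two library types built from selected 12-aa C-degron peptides (IN1, IN2, LN1, LN3, VN2, R1-R5, W1-W3, Atg1 and Rpa12 C-termini): saturation mutagenesis libraries and C-terminal +1 capping libraries (13 aa). Each peptide is fused to the C-terminus of a sfGFP-mCherry timer, after a GGGS linker. Cells are FACS-sorted into 8 mCherry/sfGFP bins and sequenced. PSI runs from 0 (unstable) to 1 (stable), measured once in wild type and in the das1Δ or doa10Δ background.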
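Wherever protein stability index of tFT-peptide fusion in deletion strain of DOA10 is given: PSI per variant is the weighted mean of its sequencing read distribution over the sorted stability bins, counting only variants with over 10 reads summed across bins.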
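Wherever protein stability index of tFT-peptide fusion in wild type is given: PSI derived as read-weighted mean over the 8 sorting bins, only variants exceeding 10 total reads kept, mCherry placed adjacent to the peptide and sfGFP distal.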

Consider RVTRLDAIYFRP, for which the protein stability index with Saccharomyces cerevisiae [1] is 0.643; with Saccharomyces cerevisiae [2] it was 0.697.
With RVTRLDAIYVRI, the protein stability index stood at 0.469 in the data set with Saccharomyces cerevisiae [1] and 0.635 in the data set on Saccharomyces cerevisiae [2].
Take RVTRLDALYFRI: the figures for the protein stability index with Saccharomyces cerevisiae [1] and in the data set on Saccharomyces cerevisiae [2] were 0.32 and 0.705, respectively.
Consider RVTRLDFIYFRI, for which the protein stability index in the data set with Saccharomyces cerevisiae [1] was determined as 0.171; with Saccharomyces cerevisiae [2], 0.596.
In the case of RVTRLDIIYFRI, the protein stability index in the data set on Saccharomyces cerevisiae [1] is 0.271; with Saccharomyces cerevisiae [2], 0.645.
As for RVTRLDNIYFRI, the protein stability index in the data set on Saccharomyces cerevisiae [1] was 0.484; in the data set with Saccharomyces cerevisiae [2] it was 0.702.
For the sequence RVTRLDWIYFRI, the protein stability index with Saccharomyces cerevisiae [1] is 0.164; in the data set on Saccharomyces cerevisiae [2] it was 0.495.
For RVTRLGAIYFRI the same measures were 0.317 and 0.634.
For RVTRLQAIYFRI, the protein stability index in the data set with Saccharomyces cerevisiae [1] is 0.202; in the data set with Saccharomyces cerevisiae [2], 0.402.
RVTRVDAIYFRI: the protein stability index in the data set on Saccharomyces cerevisiae [1] is 0.442; with Saccharomyces cerevisiae [2], 0.68.
For RYLRVLLPLYFR the same measures were 0.335 and 0.659.
SITLPMCPLLLR: the protein stability index in the data set with Saccharomyces cerevisiae [1] worked out at 0.248; in the data set on Saccharomyces cerevisiae [2] it was 0.65.
With SSLRVLLPLYFR, the protein stability index with Saccharomyces cerevisiae [1] was found to be 0.252; in the data set with Saccharomyces cerevisiae [2] it was 0.679.
For VLVSLPILLFFR the same measures were 0.0972 and 0.56.
With VVTRLDAIYFRI, the values for the protein stability index in the data set on Saccharomyces cerevisiae [1] and with Saccharomyces cerevisiae [2] were 0.302 and 0.671, respectively.
Regarding YLVSLPILLFFR, the values for the protein stability index in the data set on Saccharomyces cerevisiae [1] and in the data set on Saccharomyces cerevisiae [2] were 0.0822 and 0.538, respectively.

Source of the values: the supplement of paper PMC10724198.
